Laboratory results taken from patent publication US10941182 (Amgen, dated 2021).
Starred links: 1 amine or outer side, 2 acyl side, 3 side chain; linkers in the order of their positions; H or OH if unused. Non-standard residues stand in square brackets, D forms with d. *: point of attachment. dBip = N[C@H](Cc1ccc(-c2ccccc2)cc1)C(=O)O; Oic = O=C(O)[C@@H]1C[C@@H]2CCCC[C@@H]2N1; Phe(4-I) = N[C@@H](Cc1ccc(I)cc1)C(=O)O; γGlu = O=C(O)[C@H](CCC(=O)[*:2])N[*:1]; Tridecanoyl = CCCCCCCCCCCCC(=O)*; hArg = N=C(N)NCCCC[C@H](N)C(=O)O; NMeL = CN[C@@H](CC(C)C)C(=O)O; Nle = CCCC[C@H](N)C(=O)O; AEEA = NCCOCCOCC(=O)O

B1: SEQ ID NO: 325 (peptide)
peptide: Tridecanoyl-[γGlu][AEEA][AEEA][hArg][dR]Q[hArg]PK[NMeL]SA[Nle]G[Oic][Phe(4-I)]P[dBip]-OH
SMILES: CCCCCCCCCCCCC(=O)N[C@@H](CCC(=O)NCCOCCOCC(=O)NCCOCCOCC(=O)N[C@@H](CCCCNC(=N)N)C(=O)N[C@H](CCCNC(=N)N)C(=O)N[C@@H](CCC(N)=O)C(=O)N[C@@H](CCCCNC(=N)N)C(=O)N1CCC[C@H]1C(=O)N[C@@H](CCCCN)C(=O)N(C)[C@@H](CC(C)C)C(=O)N[C@@H](CO)C(=O)N[C@@H](C)C(=O)N[C@@H](CCCC)C(=O)NCC(=O)N1[C@H](C(=O)N[C@@H](Cc2ccc(I)cc2)C(=O)N2CCC[C@H]2C(=O)N[C@H](Cc2ccc(-c3ccccc3)cc2)C(=O)O)C[C@@H]2CCCC[C@@H]21)C(=O)O
B2: SEQ ID NO: 331 (peptide)
peptide: Tridecanoyl-[γGlu][AEEA][AEEA][hArg][dR]Q[hArg]PK[NMeL]AA[Nle]G[Oic][Phe(4-I)]P[dBip]-OH
SMILES: CCCCCCCCCCCCC(=O)N[C@@H](CCC(=O)NCCOCCOCC(=O)NCCOCCOCC(=O)N[C@@H](CCCCNC(=N)N)C(=O)N[C@H](CCCNC(=N)N)C(=O)N[C@@H](CCC(N)=O)C(=O)N[C@@H](CCCCNC(=N)N)C(=O)N1CCC[C@H]1C(=O)N[C@@H](CCCCN)C(=O)N(C)[C@@H](CC(C)C)C(=O)N[C@@H](C)C(=O)N[C@@H](C)C(=O)N[C@@H](CCCC)C(=O)NCC(=O)N1[C@H](C(=O)N[C@@H](Cc2ccc(I)cc2)C(=O)N2CCC[C@H]2C(=O)N[C@H](Cc2ccc(-c3ccccc3)cc2)C(=O)O)C[C@@H]2CCCC[C@@H]21)C(=O)O
B3: SEQ ID NO: 318 (peptide)
peptide: Tridecanoyl-[γGlu][AEEA][AEEA][hArg][dR]Q[hArg]P[dR][NMeL]AH[Nle]G[Oic][Phe(4-I)]P[dBip]-OH
SMILES: CCCCCCCCCCCCC(=O)N[C@@H](CCC(=O)NCCOCCOCC(=O)NCCOCCOCC(=O)N[C@@H](CCCCNC(=N)N)C(=O)N[C@H](CCCNC(=N)N)C(=O)N[C@@H](CCC(N)=O)C(=O)N[C@@H](CCCCNC(=N)N)C(=O)N1CCC[C@H]1C(=O)N[C@H](CCCNC(=N)N)C(=O)N(C)[C@@H](CC(C)C)C(=O)N[C@@H](C)C(=O)N[C@@H](Cc1c[nH]cn1)C(=O)N[C@@H](CCCC)C(=O)NCC(=O)N1[C@H](C(=O)N[C@@H](Cc2ccc(I)cc2)C(=O)N2CCC[C@H]2C(=O)N[C@H](Cc2ccc(-c3ccccc3)cc2)C(=O)O)C[C@@H]2CCCC[C@@H]21)C(=O)O
B4: SEQ ID NO: 330 (peptide)
peptide: Tridecanoyl-[γGlu][AEEA][AEEA][hArg][dR]Q[hArg]P[dR][NMeL]AA[Nle]G[Oic][Phe(4-I)]P[dBip]-OH
SMILES: CCCCCCCCCCCCC(=O)N[C@@H](CCC(=O)NCCOCCOCC(=O)NCCOCCOCC(=O)N[C@@H](CCCCNC(=N)N)C(=O)N[C@H](CCCNC(=N)N)C(=O)N[C@@H](CCC(N)=O)C(=O)N[C@@H](CCCCNC(=N)N)C(=O)N1CCC[C@H]1C(=O)N[C@H](CCCNC(=N)N)C(=O)N(C)[C@@H](CC(C)C)C(=O)N[C@@H](C)C(=O)N[C@@H](C)C(=O)N[C@@H](CCCC)C(=O)NCC(=O)N1[C@H](C(=O)N[C@@H](Cc2ccc(I)cc2)C(=O)N2CCC[C@H]2C(=O)N[C@H](Cc2ccc(-c3ccccc3)cc2)C(=O)O)C[C@@H]2CCCC[C@@H]21)C(=O)O
B5: SEQ ID NO: 323 (peptide)
peptide: Tridecanoyl-[γGlu][AEEA][AEEA][hArg][dR]Q[hArg]P[Nle][NMeL]SAKG[Oic][Phe(4-I)]P[dBip]-OH
SMILES: CCCCCCCCCCCCC(=O)N[C@@H](CCC(=O)NCCOCCOCC(=O)NCCOCCOCC(=O)N[C@@H](CCCCNC(=N)N)C(=O)N[C@H](CCCNC(=N)N)C(=O)N[C@@H](CCC(N)=O)C(=O)N[C@@H](CCCCNC(=N)N)C(=O)N1CCC[C@H]1C(=O)N[C@@H](CCCC)C(=O)N(C)[C@@H](CC(C)C)C(=O)N[C@@H](CO)C(=O)N[C@@H](C)C(=O)N[C@@H](CCCCN)C(=O)NCC(=O)N1[C@H](C(=O)N[C@@H](Cc2ccc(I)cc2)C(=O)N2CCC[C@H]2C(=O)N[C@H](Cc2ccc(-c3ccccc3)cc2)C(=O)O)C[C@@H]2CCCC[C@@H]21)C(=O)O
B6: SEQ ID NO: 319 (peptide)
peptide: Tridecanoyl-[γGlu][AEEA][AEEA][hArg][dR]Q[hArg]PK[NMeL]AH[Nle]G[Oic][Phe(4-I)]P[dBip]-OH
SMILES: CCCCCCCCCCCCC(=O)N[C@@H](CCC(=O)NCCOCCOCC(=O)NCCOCCOCC(=O)N[C@@H](CCCCNC(=N)N)C(=O)N[C@H](CCCNC(=N)N)C(=O)N[C@@H](CCC(N)=O)C(=O)N[C@@H](CCCCNC(=N)N)C(=O)N1CCC[C@H]1C(=O)N[C@@H](CCCCN)C(=O)N(C)[C@@H](CC(C)C)C(=O)N[C@@H](C)C(=O)N[C@@H](Cc1c[nH]cn1)C(=O)N[C@@H](CCCC)C(=O)NCC(=O)N1[C@H](C(=O)N[C@@H](Cc2ccc(I)cc2)C(=O)N2CCC[C@H]2C(=O)N[C@H](Cc2ccc(-c3ccccc3)cc2)C(=O)O)C[C@@H]2CCCC[C@@H]21)C(=O)O
B7: SEQ ID NO: 311 (peptide)
peptide: Tridecanoyl-[γGlu][AEEA][AEEA][hArg][dR]Q[hArg]P[Nle][NMeL]SHKG[Oic][Phe(4-I)]P[dBip]-OH
SMILES: CCCCCCCCCCCCC(=O)N[C@@H](CCC(=O)NCCOCCOCC(=O)NCCOCCOCC(=O)N[C@@H](CCCCNC(=N)N)C(=O)N[C@H](CCCNC(=N)N)C(=O)N[C@@H](CCC(N)=O)C(=O)N[C@@H](CCCCNC(=N)N)C(=O)N1CCC[C@H]1C(=O)N[C@@H](CCCC)C(=O)N(C)[C@@H](CC(C)C)C(=O)N[C@@H](CO)C(=O)N[C@@H](Cc1c[nH]cn1)C(=O)N[C@@H](CCCCN)C(=O)NCC(=O)N1[C@H](C(=O)N[C@@H](Cc2ccc(I)cc2)C(=O)N2CCC[C@H]2C(=O)N[C@H](Cc2ccc(-c3ccccc3)cc2)C(=O)O)C[C@@H]2CCCC[C@@H]21)C(=O)O
B8: SEQ ID NO: 313 (peptide)
peptide: Tridecanoyl-[γGlu][AEEA][AEEA][hArg][dR]Q[hArg]PK[NMeL]SH[Nle]G[Oic][Phe(4-I)]P[dBip]-OH
SMILES: CCCCCCCCCCCCC(=O)N[C@@H](CCC(=O)NCCOCCOCC(=O)NCCOCCOCC(=O)N[C@@H](CCCCNC(=N)N)C(=O)N[C@H](CCCNC(=N)N)C(=O)N[C@@H](CCC(N)=O)C(=O)N[C@@H](CCCCNC(=N)N)C(=O)N1CCC[C@H]1C(=O)N[C@@H](CCCCN)C(=O)N(C)[C@@H](CC(C)C)C(=O)N[C@@H](CO)C(=O)N[C@@H](Cc1c[nH]cn1)C(=O)N[C@@H](CCCC)C(=O)NCC(=O)N1[C@H](C(=O)N[C@@H](Cc2ccc(I)cc2)C(=O)N2CCC[C@H]2C(=O)N[C@H](Cc2ccc(-c3ccccc3)cc2)C(=O)O)C[C@@H]2CCCC[C@@H]21)C(=O)O

Each binder was assayed against T1, human APJ receptor (human, UniProt P35414 1-380) (assay: cell-based or functional assay).
T1 sequence (looked up): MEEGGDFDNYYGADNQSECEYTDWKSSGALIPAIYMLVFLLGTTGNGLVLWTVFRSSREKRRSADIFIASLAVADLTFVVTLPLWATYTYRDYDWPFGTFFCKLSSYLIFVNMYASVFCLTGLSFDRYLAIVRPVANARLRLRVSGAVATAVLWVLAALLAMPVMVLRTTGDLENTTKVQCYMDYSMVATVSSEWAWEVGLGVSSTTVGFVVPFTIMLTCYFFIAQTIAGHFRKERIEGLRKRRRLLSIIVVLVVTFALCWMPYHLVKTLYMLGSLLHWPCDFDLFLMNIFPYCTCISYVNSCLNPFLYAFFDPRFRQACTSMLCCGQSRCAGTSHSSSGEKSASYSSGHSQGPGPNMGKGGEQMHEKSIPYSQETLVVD

Binder	EC50 Human APJ Receptor [nM]
B1	3.96
B2	24.7
B3	7.44
B4	39.7
B5	2.51
B6	73.2
B7	34.7
B8	14.8

What follows are binders tested against T2, rat APJ receptor (rat, UniProt Q9JHG3 1-377) (assay: cell-based or functional assay).
T2 sequence (looked up): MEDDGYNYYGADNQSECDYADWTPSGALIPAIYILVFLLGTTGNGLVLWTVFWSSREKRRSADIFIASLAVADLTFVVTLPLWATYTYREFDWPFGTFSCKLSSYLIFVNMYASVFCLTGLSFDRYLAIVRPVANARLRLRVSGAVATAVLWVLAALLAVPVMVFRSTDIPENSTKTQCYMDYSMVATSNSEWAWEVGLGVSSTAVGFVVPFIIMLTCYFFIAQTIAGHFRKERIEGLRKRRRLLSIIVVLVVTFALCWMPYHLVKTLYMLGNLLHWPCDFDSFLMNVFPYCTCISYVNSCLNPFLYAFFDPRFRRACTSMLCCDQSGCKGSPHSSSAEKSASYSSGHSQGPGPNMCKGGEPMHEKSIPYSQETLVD

Binder	EC50 Rat APJ Receptor [nM]
B1	4.76
B2	18.1
B3	45.9
B4	56.1
B5	5.29
B6	63.1
B7	37.4
B8	10.4
